Results on 1 substance are retold here after patent publication US20200071394A1.

Experiment [1] has as its target Recombinant Human IL-17A, Sino Biological, 12047-HNAS (human) (UniProt Q16552). In words: indirect ELISA, human IL-17A coated. A general note: In an ELISA, binding on a coated surface is turned into a signal by an enzyme label.
For experiment [2] the target is unchanged. The experiment can be described thus: indirect ELISA, human IL-17A coated. The source holds these as a separate data set.
Experiment [3] shares this target. In words: cell-based or functional assay.
For experiment [4] the target is unchanged. In words: SPR (Biacore), antibody captured by anti-human antibody on the chip, IL-17A as analyte, 1:1 model. (SPR reads the build-up and loss of mass on a sensor chip optically.)

Where two headings read alike, the source gives them in different places.

Chain of Recombinant Human IL-17A, Sino Biological, 12047-HNAS (human) (Q16552 24-155 limits assumed, form in doubt): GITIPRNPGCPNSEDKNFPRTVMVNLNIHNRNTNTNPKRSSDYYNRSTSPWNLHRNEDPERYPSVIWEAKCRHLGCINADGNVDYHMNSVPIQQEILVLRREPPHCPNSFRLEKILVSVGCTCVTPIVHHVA

Take “Novartis humanized anti-IL-17 antibody (Novartis mAb)”: the EC50 in experiment [1] was determined as 0.0329 µg/mL. Further, in experiment [2], the EC50 was determined as 0.0341 µg/mL. In experiment [3], the IC50 of IL-6 release by HT1080 cells stimulated with IL-17A and TNFα is 0.52 µg/mL; the IC80 of IL-6 release by HT1080 cells stimulated with IL-17A and TNFα was determined as 2.11 µg/mL; the IC90 of IL-6 release by HT1080 cells stimulated with IL-17A and TNFα was determined as 4.8 µg/mL. In experiment [4], the Kd came out at 0.111 nM, the koff came out at 0.000161 s⁻¹ and the kon was 1.46e+06 M⁻¹ s⁻¹.

Broadly, the EC50 is the concentration at which the effect is half-maximal. Usually Kd stands for the concentration at which binding is half-saturated. As usually defined, the koff is the first-order rate constant of dissociation. Broadly, the kon is a measure of how fast the partners come together.
